Reference: article PMC10786891, “Massively parallel profiling of RNA-targeting CRISPR-Cas13d”
Residue numbers refer to the chain shown, from its start. Names and notes keep the numbering of the source.

T1: EsCas13d, nuclease-dead (Eubacterium siraeum, UniProt B0MS50, R295A;H300A;R849A;H854A)
T1 sequence: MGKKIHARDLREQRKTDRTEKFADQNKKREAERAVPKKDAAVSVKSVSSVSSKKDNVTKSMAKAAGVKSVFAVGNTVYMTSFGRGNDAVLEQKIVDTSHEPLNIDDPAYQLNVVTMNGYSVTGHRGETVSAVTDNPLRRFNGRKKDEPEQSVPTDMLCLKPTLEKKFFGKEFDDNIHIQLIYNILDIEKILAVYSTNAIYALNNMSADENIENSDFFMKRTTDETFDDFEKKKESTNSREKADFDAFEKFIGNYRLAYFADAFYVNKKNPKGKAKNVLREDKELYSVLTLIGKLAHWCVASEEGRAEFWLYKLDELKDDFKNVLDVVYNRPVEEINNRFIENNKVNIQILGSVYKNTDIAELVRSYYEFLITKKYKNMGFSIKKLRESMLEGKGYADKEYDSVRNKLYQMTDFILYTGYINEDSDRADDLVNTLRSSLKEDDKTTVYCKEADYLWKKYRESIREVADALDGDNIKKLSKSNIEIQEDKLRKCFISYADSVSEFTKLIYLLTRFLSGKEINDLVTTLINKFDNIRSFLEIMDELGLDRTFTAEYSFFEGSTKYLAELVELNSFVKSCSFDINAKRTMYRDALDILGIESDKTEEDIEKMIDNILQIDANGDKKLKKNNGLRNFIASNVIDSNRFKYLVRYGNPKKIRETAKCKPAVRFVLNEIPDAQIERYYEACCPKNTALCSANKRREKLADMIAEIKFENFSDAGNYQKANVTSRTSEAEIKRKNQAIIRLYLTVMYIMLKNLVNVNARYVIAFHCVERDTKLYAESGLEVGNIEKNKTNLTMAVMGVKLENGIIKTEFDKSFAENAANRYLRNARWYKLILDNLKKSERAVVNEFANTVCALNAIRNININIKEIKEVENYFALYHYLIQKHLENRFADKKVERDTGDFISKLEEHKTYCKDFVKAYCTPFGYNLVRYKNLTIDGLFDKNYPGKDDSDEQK

B1: target 1 U8G,C21U (mixed)
RNA 1: CACCCGUGCAAAAAUGCAGGGGUCUAAAACUGAGCGGAUAACCUCUCUAUGG
RNA 2: GGGAAUGGAUCCACAUCUACGAAUUCGUACUAUAGAGAGGUUAGCCGCUCACCGAGAUCGGAAGAGCACACGU
B2: target 1 insC 3' of 19,insC 3' of 15 (mixed)
RNA 1: B1 RNA 1
RNA 2: GGGAAUGGAUCCACAUCUACGAAUUCGUACCAUCAGAGCAGGUUAUCCGCUCACCGAGAUCGGAAGAGCACACGU
B3: target 1 C4A,U11C (mixed)
RNA 1: B1 RNA 1
RNA 2: B1 RNA 2 with U31C, U41C, G44U, C48A
B4: target 1 G12U,A14U (mixed)
RNA 1: B1 RNA 1
RNA 2: B1 RNA 2 with U31C, A38U, G40U, G44U
B5: target 1 insC 3' of 19,insA 3' of 8 (mixed)
RNA 1: B1 RNA 1
RNA 2: B2 RNA 2 with C39A, A40G, G42U, U44A, A45U, U46A
B6: target 1 insU 3' of 21,insA 3' of 13 (mixed)
RNA 1: B1 RNA 1
RNA 2: B2 RNA 2 with A32U, U33A, C34U, C39A, A40G, G41A
B7: target 1 U3A,C7U (mixed)
RNA 1: B1 RNA 1
RNA 2: B1 RNA 2 with U31C, G44U, C45U, U49A
B8: target 1 insU 3' of 7,insC 3' of 5 (mixed)
RNA 1: B1 RNA 1
RNA 2: GGGAAUGGAUCCACAUCUACGAAUUCGUACCAUAGAGAGGUUAUCUCGCCUCACCGAGAUCGGAAGAGCACACGU
B9: target 1 C4G,G13A (mixed)
RNA 1: B1 RNA 1
RNA 2: B1 RNA 2 with U31C, G39A, G44U, C48G
B10: target 1 insC 3' of 14,insC 3' of 13 (mixed)
RNA 1: B1 RNA 1
RNA 2: B8 RNA 2 with G39C, U41C, U42G, A43U, C45A, G48C, C49G
B11: target 1 C6A,A16U (mixed)
RNA 1: B1 RNA 1
RNA 2: B1 RNA 2 with U31C, A36U, G44U, C46A
B12: target 1 A1G,C7A (mixed)
RNA 1: B1 RNA 1
RNA 2: B1 RNA 2 with U31C, G44U, C45A, A51G
B13: target 1 insC 3' of 14,insU 3' of 6 (mixed)
RNA 1: B1 RNA 1
RNA 2: B8 RNA 2 with G39C, U41G, A43U, U44A, C45U, U46C, G48U, C49G
B14: target 1 U3C,U11G (mixed)
RNA 1: B1 RNA 1
RNA 2: B1 RNA 2 with U31C, U41G, G44U, U49C
B15: target 1 insA 3' of 13,insC 3' of 8 (mixed)
RNA 1: B1 RNA 1
RNA 2: B8 RNA 2 with G40A, U41G, A43U, U44A, C45U, U46C, G48C, C49G
B16: target 1 U3C,G13C (mixed)
RNA 1: B1 RNA 1
RNA 2: B1 RNA 2 with U31C, G39C, G44U, U49C
B17: target 1 U3C,C4U (mixed)
RNA 1: B1 RNA 1
RNA 2: B1 RNA 2 with U31C, G44U, C48U, U49C
B18: target 1 insC 3' of 20,insA 3' of 19 (mixed)
RNA 1: B1 RNA 1
RNA 2: B2 RNA 2 with U33C, C34U, G36A, A37G, G38A, C39G
B19: target 1 C4G,U8C (mixed)
RNA 1: B1 RNA 1
RNA 2: B1 RNA 2 with U31C, G44C, C48G
B20: target 1 complement block 6-11 (mixed)
RNA 1: B1 RNA 1
RNA 2: B1 RNA 2 with U31C, U41A, U42A, A43U, G44A, C45G, C46G
B21: target 1 U3G,C4G (mixed)
RNA 1: B1 RNA 1
RNA 2: B1 RNA 2 with U31C, G44U, C48G, U49G
B22: target 1 U11C,G13C (mixed)
RNA 1: B1 RNA 1
RNA 2: B1 RNA 2 with U31C, G39C, U41C, G44U
B23: target 1 insA 3' of 5,insA 3' of 5 (mixed)
RNA 1: B1 RNA 1
RNA 2: B8 RNA 2 with U46C, C47G, G48A, C49A
B24: target 1 insG 3' of 10,insG 3' of 4 (mixed)
RNA 1: B1 RNA 1
RNA 2: B8 RNA 2 with A43G, U44A, C45U, U46C, C50G
B25: target 1 insC 3' of 12,insA 3' of 3 (mixed)
RNA 1: B1 RNA 1
RNA 2: B8 RNA 2 with U41C, A43U, U44A, C45U, U46C, C50U, U51A
B26: target 1 U3A,G15A (mixed)
RNA 1: B1 RNA 1
RNA 2: B1 RNA 2 with U31C, G37A, G44U, U49A
B27: target 1 C2A,G15A (mixed)
RNA 1: B1 RNA 1
RNA 2: B1 RNA 2 with U31C, G37A, G44U, C50A
B28: target 1 insA 3' of 12,insA 3' of 12 (mixed)
RNA 1: B1 RNA 1
RNA 2: B8 RNA 2 with U41A, U42A, A43U, C45A, G48C, C49G
B29: target 1 insC 3' of 5,insA 3' of 3 (mixed)
RNA 1: B1 RNA 1
RNA 2: B8 RNA 2 with U46C, C47G, G48C, C50U, U51A
B30: target 1 insA 3' of 17,insU 3' of 13 (mixed)
RNA 1: B1 RNA 1
RNA 2: B2 RNA 2 with C34A, A35G, G36A, C39A, A40G, G41U
B31: target 1 A9G,C22U (mixed)
RNA 1: B1 RNA 1
RNA 2: B1 RNA 2 with C30U, U31C, A43G, G44U
B32: target 1 insC 3' of 15,insA 3' of 6 (mixed)
RNA 1: B1 RNA 1
RNA 2: B8 RNA 2 with A38C, G39A, U41G, A43U, U44A, C45U, U46C, G48A, C49G
B33: target 1 insU 3' of 21,insU 3' of 12 (mixed)
RNA 1: B1 RNA 1
RNA 2: B2 RNA 2 with A32U, U33A, C34U, C39A, A40G, G42U
B34: target 1 insA 3' of 15,insA 3' of 6 (mixed)
RNA 1: B1 RNA 1
RNA 2: B8 RNA 2 with G39A, U41G, A43U, U44A, C45U, U46C, G48A, C49G

Target: T1, EsCas13d, nuclease-dead
Experiment: crRNA (strand 1, pre-loaded); Mg2+; 40 mM Tris-HCl pH 7.5, 150 mM NaCl, 6 mM MgCl2, 1 mM DTT, 0.1% Tween-20, 0.2 mg/ml BSA; 25 C; 10 min per concentration, then washed
Details: tags: His6-TwinStrep-SUMO cleaved; N-terminal SNAP kept (SNAP-Surface 488); label: 3' end held by stalled T7 RNA polymerase

Binder | Kd [nM]
B1 | 8.34 ± 0.26
B2 | 45 ± 5
B3 | 10 ± 0.9
B4 | 25 ± 9
B5 | 47 ± 4
B6 | 21.3 ± 1.3
B7 | 5.4 ± 0.4
B8 | 12.5 ± 0.5
B9 | 7.3 ± 0.9
B10 | 53 ± 9
B11 | 44 ± 4
B12 | 8.7 ± 0.5
B13 | 53 ± 25
B14 | 35 ± 4
B15 | 6.4 ± 0.8
B16 | 36 ± 4
B17 | 49 ± 8

Binder | Kd [nM]
B18 | 9.1 ± 1
B19 | 4.64 ± 0.25
B20 | 14.5 ± 1.2
B21 | 5.2 ± 0.4
B22 | 62 ± 23
B23 | 8.5 ± 0.7
B24 | 35 ± 7
B25 | 9.3 ± 0.8
B26 | 20 ± 4
B27 | 20.2 ± 0.9
B28 | 14.3 ± 0.7
B29 | 30 ± 4
B30 | 22 ± 4
B31 | 27.3 ± 2.3
B32 | 22.4 ± 1.5
B33 | 21.5 ± 1.3
B34 | 14.4 ± 1.4
